# From PMC10573690 (International Journal of Molecular Sciences, 2023)
# T1: biotinylated EMPD-characteristic peptide (Homo sapiens, synthetic peptide of the …, biotin on the C-terminal lysine (K-biotin))
# T1 construct: added C-terminal lysine that carries the biotin; Held on streptavidin sensors or plates through the biotin; also called synthetic peptide ligand representing a section of the human EMPD; model peptide; source: synthetic peptide; bought: Fisher Scientific
# T1 chain: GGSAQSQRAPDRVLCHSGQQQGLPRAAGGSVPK
# Columns and labels:
# [1] = biological target: T2, IgE-Fc-B-cell receptor construct (3×FLAG tag-Cε2-Cε3-Cε4-EMPD-transmembrane-intracellular domain) on Edox … (Homo sapiens, UniProt P01854, strain); assay: cell-based or functional assay
# Target sequence in this assay (P01854 whole entry, looked up, change not shown, the tested form may be a part): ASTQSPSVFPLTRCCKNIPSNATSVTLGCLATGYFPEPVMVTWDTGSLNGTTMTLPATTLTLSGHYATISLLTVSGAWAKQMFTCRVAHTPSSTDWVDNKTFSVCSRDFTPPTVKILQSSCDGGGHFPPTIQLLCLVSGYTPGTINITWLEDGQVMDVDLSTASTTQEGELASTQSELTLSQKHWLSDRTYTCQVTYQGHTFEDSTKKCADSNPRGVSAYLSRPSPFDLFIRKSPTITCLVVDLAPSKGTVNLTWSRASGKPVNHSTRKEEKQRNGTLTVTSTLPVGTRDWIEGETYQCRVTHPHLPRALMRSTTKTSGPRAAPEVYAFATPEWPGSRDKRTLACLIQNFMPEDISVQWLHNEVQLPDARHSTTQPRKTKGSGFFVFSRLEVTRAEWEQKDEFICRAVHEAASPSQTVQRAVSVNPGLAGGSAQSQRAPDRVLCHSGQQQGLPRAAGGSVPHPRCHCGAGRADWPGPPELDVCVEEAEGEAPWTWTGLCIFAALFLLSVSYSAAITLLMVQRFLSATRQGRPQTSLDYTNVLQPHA
# [2] = biological target: T1, biotinylated EMPD-characteristic peptide; assay: BLI; biotinylated EMPD peptide on streptavidin sensors (5 µg/mL); antibodies in two-fold dilutions from 250 nM; PBS with 1× Kinetics buffer, 25 °C; steady state value; settings: both partners purified
# [3] = biological target: T2, IgE-Fc-B-cell receptor construct …; assay: flow cytometry on cells; doxycycline-induced Edox cells, antibodies in graded concentrations, 30 min on ice in 2% BSA-PBS; detection with anti-human kappa light chain-FITC; settings: one partner purified
# Target sequence in this assay (P01854 429-546, change not shown): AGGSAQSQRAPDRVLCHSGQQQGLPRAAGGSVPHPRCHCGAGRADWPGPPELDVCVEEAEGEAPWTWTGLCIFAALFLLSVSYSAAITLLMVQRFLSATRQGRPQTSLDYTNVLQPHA
# [4] = biological target: T1, biotinylated EMPD-characteristic peptide; assay: ELISA; biotinylated EMPD peptide on streptavidin plate (30 nM); antibodies in 3-fold dilutions from 45 nM in 2% BSA-PBS, RT; detection with anti-human kappa chain-HRP; settings: both partners purified
Binder,"decrease of surface Fcε (anti-FLAG staining, flow cytometry) on Edox cells after 4 h at 37 °C against incubation on ice [1] [%]",Kd [2] [nM],EC50 [3] [nM],EC50 [4] [nM]
"quilizumab (antibody, V domains shown) VH: EVQLVESGGGLVQPGGSLRLSCAASGFTFSDYGIAWVRQAPGKGLEWVAFISDLAYTIYYADTVTGRFTISRDNSKNTLYLQMNSLRAEDTAVYYCARDNWDAMDYWGQGTLVTVSS VL: DIQMTQSPSSLSASVGDRVTITCRSSQSLVHNNANTYLHWYQQKPGKAPKLLIYKVSNRFSGVPSRFSGSGSGTDFTLTISSLQPEDFATYYCSQNTLVPWTFGQGTKVEIK",~70,–,–,–
"15cl12, chimeric antibody with human constant domains (antibody, V domains shown) VH: QIQLQQSGAELVKPGASVKLSCKASGYTFTSYDINWVRQRPERGLDWIGWIFPGDGSSKYNENFKGKATLTTDKSSNTAYIHLSRLTSEDSAVYFCARWGKTFDYWGQGTTLTVSS VL: DIVMSQSPSSLAVSVGEKVTMSCKSSQSLLYSRDQKNYLAWFQQKPGQSPKLLIYWASARESGVPDRFTGSGSGTDFTLTITSLKTEDLAVYYCQQFYNYPRTFGGGTKLEIK",> 80,11,4,–
"15cl12_L328C coupled with MC-Val-Cit-PAB-MMAE (antibody-drug conjugate) (antibody, V domains shown) VH: QIQLQQSGAELVKPGASVKLSCKASGYTFTSYDINWVRQRPERGLDWIGWIFPGDGSSKYNENFKGKATLTTDKSSNTAYIHLSRLTSEDSAVYFCARWGKTFDYWGQGTTLTVSS VL: DIVMSQSPSSLAVSVGEKVTMSCKSSQSLLYSRDQKNYLAWFQQKPGQSPKLLIYWASARESGVPDRFTGSGSGTDFTLTITSLKTEDLAVYYCQQFYNYPRTFGGGTKLEIK",–,7.5,~8,0.23
"ligelizumab (antibody, V domains shown, whole heavy chain, IgG1 format; whole light chain; IgG1; made in house; source: HEK293-6E, transfected, purified from supernatant (Protein A)) VH: QVQLVQSGAEVMKPGSSVKVSCKASGYTFSWYWLEWVRQAPGHGLEWMGEIDPGTFTTNYNEKFKARVTFTADTSTSTAYMELSSLRSEDTAVYYCARFSHFSGSNYDYFDYWGQGTLVTVSS VL: EIVMTQSPATLSVSPGERATLSCRASQSIGTNIHWYQQKPGQAPRLLIYYASESISGIPARFSGSGSGTEFTLTISSLQSEDFAVYYCQQSWSWPTTFGGGTKVEIK",> 80,–,~0.1,–
